According to publication doi:10.1101/2023.07.18.549252 (bioRxiv, 2023):

Legend:
[1] = biological target: Tau-LexA (Tau variant 0N4R isoform with a C-terminal LexA fusion) (Homo sapiens, UniProt P10636-6); experiment: two-hybrid
[2] = biological target: Tau 2N4R (recombinant; 15N-labelled for NMR) (Homo sapiens, UniProt P10636-8); experiment: NMR titration
[3] = biological target: Biotinylated Tau 2N4R (Homo sapiens, UniProt P10636-8, biotin (NHS-biotin conjugates, 5 molar excess; sites not stated)); experiment: SPR
[4] = biological target: Tau (on the Western blot membrane) (Homo sapiens, UniProt P10636); experiment: far-Western, overlay or dot blot

B1: VHH Z70 mutant 3 (R47K), Gal4 activation domain fusion prey (VHH)
VHH: EVQLQASGGVFVQSGGSLRLSCAASGATSTFDGMGWFRQAPGKEKEFVSAISYEQGSYTYYADSVKGRFTISRDNSKNMVYLQMNSLRAEDTATYYCAPAYEGDLYAFDSYGGQGTQVTVSS
Question: Does B1 bind [1]?
Answer: binds

B2: VHH Z70 mutant 14, Gal4 activation domain fusion prey (VHH)
VHH: EVQLQASGGVFVQSGGSLRLSCAASGATSIFDGMGWFRQAPGKEREFVSAISYGQGSYTYYADSVKGRFTISRDNSKNMVYLQMNSLRAEDTATYYCAPAYEGDLYAFDSYGEQGTQVTVSS
Question: Does B2 bind [1]?
Answer: binds

B3: VHH Z70 mutant 15 (R90G + P101S + G114E), Gal4 activation domain fusion prey (VHH)
VHH: EVQLQASGGVFVQSGGSLRLSCAASGATSTFDGMGWFRQAPGKEREFVSAISYEQGSYTYYADSVKGRFTISRDNSKNMVYLQMNSLGAEDTATYYCASAYEGDLYAFDSYEGQGTQVTVSS
Question: Does B3 bind [1]?
Answer: binds

B4: VHH Z70 mutant 9 (P101S + G115E) (VHH)
VHH: EVQLQASGGVFVQSGGSLRLSCAASGATSTFDGMGWFRQAPGKEREFVSAISYEQGSYTYYADSVKGRFTISRDNSKNMVYLQMNSLRAEDTATYYCASAYEGDLYAFDSYGEQGTQVTVSS
Question: Does B4 bind [2]?
Answer: binds

Question: Does B4 bind [3]?
Answer: binds

B5: TAMRA-labelled VHH Z70 mutant 3 (R47K) with a terminal cysteine (VHH)
VHH: EVQLQASGGVFVQSGGSLRLSCAASGATSTFDGMGWFRQAPGKEKEFVSAISYEQGSYTYYADSVKGRFTISRDNSKNMVYLQMNSLRAEDTATYYCAPAYEGDLYAFDSYGGQGTQVTVSS
Question: Does B5 bind [4]?
Answer: binds

B6: TAMRA-labelled VHH Z70 mutant 20 (double mutation R47K + G115E) with a terminal cysteine (VHH)
VHH: EVQLQASGGVFVQSGGSLRLSCAASGATSTFDGMGWFRQAPGKEKEFVSAISYEQGSYTYYADSVKGRFTISRDNSKNMVYLQMNSLRAEDTATYYCAPAYEGDLYAFDSYGEQGTQVTVSS
Question: Does B6 bind [4]?
Answer: binds

B7: VHH Z70 mutant 5 (T96S), Gal4 activation domain fusion prey (VHH)
VHH: EVQLQASGGVFVQSGGSLRLSCAASGATSTFDGMGWFRQAPGKEREFVSAISYEQGSYTYYADSVKGRFTISRDNSKNMVYLQMNSLRAEDTASYYCAPAYEGDLYAFDSYGGQGTQVTVSS
Question: Does B7 bind [1]?
Answer: binds

B8: VHH Z70 mutant 20 (R47K + G115E) (VHH)
VHH: EVQLQASGGVFVQSGGSLRLSCAASGATSTFDGMGWFRQAPGKEKEFVSAISYEQGSYTYYADSVKGRFTISRDNSKNMVYLQMNSLRAEDTATYYCAPAYEGDLYAFDSYGEQGTQVTVSS
Question: Does B8 bind [2]?
Answer: binds

Question: Does B8 bind [3]?
Answer: binds

B9: VHH Z70 mutant 5 (T96S) (VHH)
VHH: EVQLQASGGVFVQSGGSLRLSCAASGATSTFDGMGWFRQAPGKEREFVSAISYEQGSYTYYADSVKGRFTISRDNSKNMVYLQMNSLRAEDTASYYCAPAYEGDLYAFDSYGGQGTQVTVSS
Question: Does B9 bind [2]?
Answer: binds

Question: Does B9 bind [3]?
Answer: binds

B10: VHH Z70 mutant 1 (G115E) (VHH)
VHH: EVQLQASGGVFVQSGGSLRLSCAASGATSTFDGMGWFRQAPGKEREFVSAISYEQGSYTYYADSVKGRFTISRDNSKNMVYLQMNSLRAEDTATYYCAPAYEGDLYAFDSYGEQGTQVTVSS
Question: With B10 as the binder, how does the Kd [3] read?
Answer: 23 nM

B11: VHH Z70 mutant 9 (P101S + G115E), Gal4 activation domain fusion prey (VHH)
VHH: EVQLQASGGVFVQSGGSLRLSCAASGATSTFDGMGWFRQAPGKEREFVSAISYEQGSYTYYADSVKGRFTISRDNSKNMVYLQMNSLRAEDTATYYCASAYEGDLYAFDSYGEQGTQVTVSS
Question: Does B11 bind [1]?
Answer: binds

B12: VHH Z70 mutant 14 (VHH)
VHH: EVQLQASGGVFVQSGGSLRLSCAASGATSIFDGMGWFRQAPGKEREFVSAISYGQGSYTYYADSVKGRFTISRDNSKNMVYLQMNSLRAEDTATYYCAPAYEGDLYAFDSYGEQGTQVTVSS
Question: Which results are given for B12?
Answer: binding result [2]: binds; binding result [3]: binds

B13: VHH Z70 mutant 15 (R90G + P101S + G114E) (VHH)
VHH: EVQLQASGGVFVQSGGSLRLSCAASGATSTFDGMGWFRQAPGKEREFVSAISYEQGSYTYYADSVKGRFTISRDNSKNMVYLQMNSLGAEDTATYYCASAYEGDLYAFDSYEGQGTQVTVSS
Question: Does B13 bind [3]?
Answer: binds

B14: VHH Z70 mutant 12 (S23C + G115E) (VHH)
VHH: EVQLQASGGVFVQSGGSLRLCCAASGATSTFDGMGWFRQAPGKEREFVSAISYEQGSYTYYADSVKGRFTISRDNSKNMVYLQMNSLRAEDTATYYCAPAYEGDLYAFDSYGEQGTQVTVSS
Question: Does B14 bind [2]?
Answer: binds

Question: Does B14 bind [3]?
Answer: binds

B15: VHH Z70 mutant 12 (S23C + G115E), Gal4 activation domain fusion prey (VHH)
VHH: EVQLQASGGVFVQSGGSLRLCCAASGATSTFDGMGWFRQAPGKEREFVSAISYEQGSYTYYADSVKGRFTISRDNSKNMVYLQMNSLRAEDTATYYCAPAYEGDLYAFDSYGEQGTQVTVSS
Question: Does B15 bind [1]?
Answer: binds

B16: VHH Z70 mutant 3 (R47K) (VHH)
VHH: EVQLQASGGVFVQSGGSLRLSCAASGATSTFDGMGWFRQAPGKEKEFVSAISYEQGSYTYYADSVKGRFTISRDNSKNMVYLQMNSLRAEDTATYYCAPAYEGDLYAFDSYGGQGTQVTVSS
Question: Does B16 bind [2]?
Answer: binds

Question: Does B16 bind [3]?
Answer: binds
